Data reported in patent US20160228502A1.
Values joined by “and” are separate entries in the source; they are usually repeats but may differ in a detail not shown here. Equal entries are not always repeated.

Experiments:
SERCA1-CFP (rabbit) [1] = target: SERCA1-CFP (rabbit) (UniProt P04191); experiment: AFRET in living COS7 cells
SERCA1-CFP (rabbit) [2] = target: SERCA1-CFP (rabbit) (UniProt P04191); experiment: AFRET (Δr=rCFP-rFRET) in COS7 cells
SERCA1-CFP (rabbit) [3] = target: SERCA1-CFP (rabbit) (UniProt P04191); experiment: AFRET in COS7 cells, FLAG-SLN cotransfected
SERCA1-CFP (rabbit) [4] = target: SERCA1-CFP (rabbit) (UniProt P04191); experiment: AFRET in COS7 cells
[5] = target: sarco(endo)plasmic reticulum Ca^2+-ATPase 1 (SERCA1) (rabbit) (UniProt P04191); experiment: amylose resin pull down from COS7 extracts expressing SERCA1, immunoblot densitometry
SLN-YFP (rabbit) = SLN-YFP (rabbit) (UniProt P42532); experiment: AFRET in COS7 cells
[6] = target: sarco(endo)plasmic reticulum Ca^2+-ATPase 1 (SERCA1) (rabbit) (UniProt P04191); experiment: coIP with antibodies to SERCA1 from COS7 extracts, densitometry, with FLAG-SLN coexpressed
[7] = target: sarco(endo)plasmic reticulum Ca^2+-ATPase 1 (SERCA1) (rabbit) (UniProt P04191); experiment: cell-based or functional assay
[8] = target: sarco(endo)plasmic reticulum Ca^2+-ATPase 1 (SERCA1) (rabbit) (UniProt P04191); experiment: coIP with antibodies to SERCA1 from COS7 extracts, with or without FLAG-SLN
SERCA1-CFP (rabbit) [9] = target: SERCA1-CFP (rabbit) (UniProt P04191); experiment: AFRET in COS7 cells, SERCA1-CFP as donor
sAnk1-CFP = experiment: AFRET in COS7 cells, sAnk1-CFP as donor
[10] = target: sarco(endo)plasmic reticulum Ca^2+-ATPase 1 (SERCA1) (rabbit) (UniProt P04191); experiment: coIP with antibodies to sAnk1 from COS7 extracts, densitometry
[11] = target: sarco(endo)plasmic reticulum Ca^2+-ATPase 1 (SERCA1) (rabbit) (UniProt P04191); experiment: coIP with antibodies to SERCA1 from COS7 extracts, densitometry
[12] = target: sarco(endo)plasmic reticulum Ca^2+-ATPase 1 (SERCA1) (rabbit) (UniProt P04191); experiment: coIP from COS7 extracts, densitometry

SERCA1-CFP (rabbit), sequence (P04191 whole entry): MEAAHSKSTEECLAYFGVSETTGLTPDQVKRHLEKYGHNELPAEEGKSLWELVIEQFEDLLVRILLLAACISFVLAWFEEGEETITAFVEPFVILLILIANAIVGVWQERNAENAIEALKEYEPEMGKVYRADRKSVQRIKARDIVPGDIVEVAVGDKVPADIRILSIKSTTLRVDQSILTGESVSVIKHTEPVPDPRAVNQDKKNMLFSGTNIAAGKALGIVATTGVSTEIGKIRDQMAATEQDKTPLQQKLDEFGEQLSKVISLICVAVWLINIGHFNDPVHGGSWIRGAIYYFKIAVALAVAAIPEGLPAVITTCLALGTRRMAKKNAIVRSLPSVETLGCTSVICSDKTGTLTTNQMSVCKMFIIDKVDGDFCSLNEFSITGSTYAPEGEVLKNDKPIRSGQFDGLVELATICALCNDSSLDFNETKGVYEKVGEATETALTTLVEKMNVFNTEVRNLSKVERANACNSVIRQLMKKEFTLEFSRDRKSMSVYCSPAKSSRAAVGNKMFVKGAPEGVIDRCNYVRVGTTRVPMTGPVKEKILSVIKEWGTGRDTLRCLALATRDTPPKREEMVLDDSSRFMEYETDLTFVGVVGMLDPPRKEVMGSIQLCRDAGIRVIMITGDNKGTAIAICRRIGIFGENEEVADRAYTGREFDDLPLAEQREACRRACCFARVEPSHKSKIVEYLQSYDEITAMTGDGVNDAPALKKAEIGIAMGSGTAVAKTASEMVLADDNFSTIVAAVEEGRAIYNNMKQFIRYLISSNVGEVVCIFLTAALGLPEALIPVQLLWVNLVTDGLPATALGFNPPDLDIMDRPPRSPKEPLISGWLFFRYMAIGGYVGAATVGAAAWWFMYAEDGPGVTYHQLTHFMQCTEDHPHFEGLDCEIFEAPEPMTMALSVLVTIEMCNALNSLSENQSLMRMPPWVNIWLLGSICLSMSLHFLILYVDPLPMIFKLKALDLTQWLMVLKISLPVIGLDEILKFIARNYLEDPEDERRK
sarco(endo)plasmic reticulum Ca^2+-ATPase 1 (SERCA1) (rabbit), sequence (P04191 whole entry): as above
SLN-YFP (rabbit), sequence (P42532 whole entry): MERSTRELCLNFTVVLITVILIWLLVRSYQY

sAnk1-YFP
AFRET Δrmean (SERCA1-CFP (rabbit) [1]): 0.043 | AFRET Δrmean (SERCA1-CFP (rabbit) [2]): 0.026 | AFRET Δrmean (cells cotransfected with FLAG-SLN) (SERCA1-CFP (rabbit) [3]): 0.036 | AFRET Δrmean (SERCA1-CFP (rabbit) [4]): 0.021

sAnk1 (29-155)-MBP fusion protein (from UniProt P0AEX9 27-392)
fold SERCA1 pulled down relative to the MBP control [5]: 9 fold

sAnk1-CFP
AFRET Δrmean (SLN-YFP (rabbit)): 0.03

sAnk1 (all-L)-YFP
AFRET Δrmean (SERCA1-CFP (rabbit) [1]): 0.017

sAnk1-FLAG (C-terminal FLAG-tagged sAnk1)
fold increase in coIP with SERCA1 on addition of FLAG-SLN, against co-transfection of SERCA1 and sAnk1 alone [6]: 2.6 fold | HEK 293 mean Kca (nM), Ca^2+-ATPase assay [7]: 680 nM | HEK 293 mean Kca (pCa), Ca^2+-ATPase assay [7]: 6.17 pCa | KCa2+ ([Ca^2+] required for half-maximal activation) of SERCA1 Ca^2+-ATPase, COS7 microsomes, all assays compiled [7]: 759 nM | KCa2+ in pCa^2+ units, SERCA1 Ca^2+-ATPase, COS7 microsomes, all assays compiled [7]: 6.12 pCa^2+ units | Mean Kca (nM), Ca^2+-ATPase assay in COS7 microsomes, FIG. 6B [7]: 708 nM | Mean Kca (nM), Ca^2+-ATPase assay in COS7 microsomes, FIG. 6D [7]: 794 nM | Mean Kca (pCa), Ca^2+-ATPase assay in COS7 microsomes, FIG. 6B [7]: 6.15 pCa | Mean Kca (pCa), Ca^2+-ATPase assay in COS7 microsomes, FIG. 6D [7]: 6.1 pCa | shift of SERCA1's apparent Ca^2+ affinity, COS7 microsomes [7]: -0.18 pCa^2+ units | ΔKCa2+ in HEK293 microsomes [7]: -0.21 pCa^2+ units | ΔKCa2+ relative to SERCA1 Alone [7]: -0.2 pCa^2+ units | ΔKCa2+, COS7 microsomes, experiment with sAnk1 (all-L) [7]: -0.22 pCa^2+ units

sAnk1 (29-155)-FLAG
fold enhancement of the interaction in the presence of FLAG-SLN [8]: 2.7 fold

dysferlin-YFP
AFRET Δrmean (SERCA1-CFP (rabbit) [9]): -0.035 | AFRET Δrmean (sAnk1-CFP): -0.028

sAnk1 (all-L)
percent of SERCA1 coimmunoprecipitated compared to WT [10]: 49% | percent of sAnk1 (all-L) coimmunoprecipitated compared to WT sAnk1 [11]: 49% | KCa2+ ([Ca^2+] required for half-maximal activation) of SERCA1 Ca^2+-ATPase, COS7 microsomes [7]: 501 nM | KCa2+ in pCa^2+ units, SERCA1 Ca^2+-ATPase, COS7 microsomes [7]: 6.3 pCa^2+ units | Mean Kca (nM), Ca^2+-ATPase assay in COS7 microsomes, FIG. 6D [7]: 502 nM | Mean Kca (pCa), Ca^2+-ATPase assay in COS7 microsomes, FIG. 6D [7]: 6.3 pCa | ΔKCa2+ relative to SERCA1 Alone [7]: -0.02 pCa^2+ units | ΔKCa2+, COS7 microsomes [7]: -0.01 pCa^2+ units | reduction in coIP, normalized to coIP of SERCA1 and sAnk1 (WT) [12]: 50% and 34% to 61% (2×)
